Publication PMC10066265, “Inhibitor-3 inhibits Protein Phosphatase 1 via a metal binding dynamic protein–protein interaction” (Nature Communications, 2023)

B1: CCCdeletion: I327-59 (Δ60-68) (domain or fragment, human, UniProt O60927 27-59, looked up)
chain: SLTIKLRKRKPEKKVEWTSDTVDNEHMGRRSSK
notes: also called I3 CCCdeletion; source: E. coli BL21 (DE3), purified (Ni-NTA, TEV cleavage, heat 95 °C, SEC); not shown: His6, N-terminal, cleaved; MBP, N-terminal, cleaved
B2: CCC_(deletion): I3_(27-59) (Δ60-68) (domain or fragment, human, UniProt O60927 27-59, looked up)
chain: SLTIKLRKRKPEKKVEWTSDTVDNEHMGRRSSK
notes: PPP1R11), human, residues 27-59; also called I3 CCC_(deletion) variant; I3_(27-68) CCC_(deletion); source: E. coli BL21 (DE3), purified (Ni-NTA, TEV, heat 95 °C, SEC); not shown: His6, N-terminal, cleaved; MBP, N-terminal, cleaved
B3: I3_(27-68) (I3 PP1 interaction domain) (domain or fragment, human, UniProt O60927 27-68, looked up)
chain: SLTIKLRKRKPEKKVEWTSDTVDNEHMGRRSSKCCCIYEKPR
notes: PPP1R11), human, residues 27-68; also called WT I3_(27-68); source: E. coli BL21 (DE3), purified (Ni-NTA, TEV, heat 95 °C, SEC); not shown: His6, N-terminal, cleaved; MBP, N-terminal, cleaved
B4: CCS: I3_(27-68) C62S (domain or fragment, human, UniProt O60927 27-68, looked up)
chain: SLTIKLRKRKPEKKVEWTSDTVDNEHMGRRSSKCCSIYEKPR
notes: PPP1R11), human, residues 27-68; source: E. coli BL21 (DE3), purified (Ni-NTA, TEV, heat 95 °C, SEC); not shown: His6, N-terminal, cleaved; MBP, N-terminal, cleaved
B5: CSC: I3_(27-68) C61S (domain or fragment, human, UniProt O60927 27-68, looked up)
chain: SLTIKLRKRKPEKKVEWTSDTVDNEHMGRRSSKCSCIYEKPR
notes: as for B4
B6: CSS: I3_(27-68) C61S/C62S (domain or fragment, human, UniProt O60927 27-68, looked up)
chain: SLTIKLRKRKPEKKVEWTSDTVDNEHMGRRSSKCSSIYEKPR
notes: as for B4
B7: IY: I3_(27-68) I63A/Y64A (domain or fragment, human, UniProt O60927 27-68, looked up)
chain: SLTIKLRKRKPEKKVEWTSDTVDNEHMGRRSSKCCCAAEKPR
notes: PPP1R11), human, residues 27-68; also called I3_(27-68) IY; source: E. coli BL21 (DE3), purified (Ni-NTA, TEV, heat 95 °C, SEC); not shown: His6, N-terminal, cleaved; MBP, N-terminal, cleaved
B8: SCC: I3_(27-68) C60S (domain or fragment, human, UniProt O60927 27-68, looked up)
chain: SLTIKLRKRKPEKKVEWTSDTVDNEHMGRRSSKSCCIYEKPR
notes: as for B4
B9: SCS: I3_(27-68) C60S/C62S (domain or fragment, human, UniProt O60927 27-68, looked up)
chain: SLTIKLRKRKPEKKVEWTSDTVDNEHMGRRSSKSCSIYEKPR
notes: as for B4

Columns and labels:
PP1α7-330 [1] = target: PP1α7-330 (UniProt P62136)
Chain of PP1α7-330 (UniProt P62136) (P62136 7-330): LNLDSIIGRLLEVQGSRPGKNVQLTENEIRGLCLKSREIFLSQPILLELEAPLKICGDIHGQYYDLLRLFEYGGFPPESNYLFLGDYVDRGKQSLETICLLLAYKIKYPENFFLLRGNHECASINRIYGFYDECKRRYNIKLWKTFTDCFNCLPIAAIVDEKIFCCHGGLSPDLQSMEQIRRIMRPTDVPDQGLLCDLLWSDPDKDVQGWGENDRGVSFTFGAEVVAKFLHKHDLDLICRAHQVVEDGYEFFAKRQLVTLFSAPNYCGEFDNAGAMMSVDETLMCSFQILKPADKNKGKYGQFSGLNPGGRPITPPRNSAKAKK

PP1α7-330 [2] = target: T1, PP1α7-330 (UniProt P62136 7-330); experiment: SPR; His6-PP1 captured on a Ni-NTA sensor chip (NiHC200M), I3 variants injected; 25 °C; 20 mM Tris pH 8.0, 500 mM NaCl, 1 mM MnCl2, 0.5 mM TCEP, 0.05% Tween-20; one-to-one one-state or one-to-one two-state fit; conditions: both partners purified
T1 construct: Protein Phosphatase 1 alpha catalytic subunit, residues 7-330; For SPR the His6-tagged PP1 was captured on a Ni-NTA chip; also called Protein Phosphatase 1; PP17-330; source: bacterial expression as previously described, purified (Ni-NTA, SEC)
T1 sequence (P62136 7-330): as above

His6-PP1α_(7-330) [3] = target: T2, His6-PP1α_(7-330) (UniProt P62136 7-330); experiment: cell-based or functional assay
T2 sequence (P62136 7-330): as above

His6-PP1α_(7-330) [4] = target: T2, His6-PP1α_(7-330); experiment: SPR; His6-PP1 captured on a Ni-NTA sensorchip (NiHC200M), I3 variants injected; 25 °C; 20 mM Tris pH 8.0, 500 mM NaCl, 1 mM MnCl2, 0.5 mM TCEP, 0.05% Tween-20; one-to-one one state or one-to-one two state model; conditions: both partners purified
His6-PP1α_(7-330) C273S [5] = target: T3, His6-PP1α_(7-330) C273S (UniProt P62136 7-330, C273S); experiment: cell-based or functional assay
T3 sequence (P62136 7-330 C273S): as the sequence (P62136 7-330) above, with C267S counted along it

His6-PP1α_(7-330) [6] = target: T2, His6-PP1α_(7-330); experiment: SPR; His6-PP1 captured on a Ni-NTA sensorchip, I3_(27-68) injected; pH = 7.0 (Table 1); two state fit; conditions: both partners purified
His6-PP1α_(7-330) [7] = target: T2, His6-PP1α_(7-330); experiment: SPR; His6-PP1 captured on a Ni-NTA sensorchip, I3_(27-68) injected; pH = 6.5 (Table 1); two state fit; pH 6.5; conditions: both partners purified
His6-PP1α_(7-330) [8] = target: T2, His6-PP1α_(7-330); experiment: SPR; His6-PP1 captured on a Ni-NTA sensorchip, I3_(27-68) injected; pH = 7.5 (Table 1); two state fit; pH 7.5; conditions: both partners purified
His6-PP1α_(7-330) C273S [9] = target: T3, His6-PP1α_(7-330) C273S; experiment: SPR; His6-PP1 captured on a Ni-NTA sensorchip (NiHC200M), I3 variants injected; 25 °C; 20 mM Tris pH 8.0, 500 mM NaCl, 1 mM MnCl2, 0.5 mM TCEP, 0.05% Tween-20; one-to-one one state or one-to-one two state model; conditions: both partners purified
His6-PP1α_(7-330) H66K = target: T4, His6-PP1α_(7-330) H66K (UniProt P62136 7-330, H66K); experiment: as above; conditions: both partners purified
T4 construct: Protein Phosphatase 1 alpha (PP1α), residues 7-330, H66K; also called PP1 H66K; PP1_(7-330) H66K; source: bacterial expression (E. coli) as previously described, purified (Ni-NTA, SEC)
T4 sequence (P62136 7-330 H66K): as the sequence (P62136 7-330) above, with H60K counted along it

His6-PP1α_(7-330) H248N = target: T5, His6-PP1α_(7-330) H248N (UniProt P62136 7-330, H248N); experiment: as above; conditions: both partners purified
T5 construct: Protein Phosphatase 1 alpha (PP1α), residues 7-330, H248N; also called PP1_(7-330) H248N; source: bacterial expression (E. coli) as previously described, purified (Ni-NTA, SEC)
T5 sequence (P62136 7-330 H248N): as the sequence (P62136 7-330) above, with H242N counted along it

Row | Binder | IC50 of PP1 inhibition (dephosphorylation of the H3pT3 peptide, released Pi) (His6-PP1α_(7-330) [3]) [µM] | Kd (His6-PP1α_(7-330) [4]) [µM] | further results
1 | SLTIKLRKRKPEKKVEWTSDTVDNEHMGRRSSKCCCIYEKPR (domain or fragment) [I327-68 (I3 PP1 interaction domain)] |  |  | Supplementary Figure 5A: IC50 of PP1 inhibition by I3 27-68 (dephosphorylation of the H3pT3 peptide) in the presence of 1.3 mM DTT; I3 exchanged into buffer without 0.5 mM TCEP (PP1α7-330 [1]): 0.07 µM
2 | B1 |  |  | koff (PP1α7-330 [2]): 0.0766 s⁻¹; kon (PP1α7-330 [2]): 210000 M⁻¹ s⁻¹
3 | B2 | 0.422 | 0.376 ± 0.047 | 
4 | B3 | 0.075 | 0.0093 ± 0.0011 | IC50 of PP1 C273S inhibition (dephosphorylation of the H3pT3 peptide, released Pi; 1.33 mM DTT) (His6-PP1α_(7-330) C273S [5]): 0.085 µM; Kd (His6-PP1α_(7-330) [6]): 0.0161 ± 0.0011 µM; Kd (His6-PP1α_(7-330) [7]): 0.017 ± 0.0008 µM; Kd (His6-PP1α_(7-330) [8]): 0.009 ± 0.0006 µM; Kd (His6-PP1α_(7-330) C273S [9]): 0.0161 ± 0.0007 µM; Kd (His6-PP1α_(7-330) H66K): 0.0059 ± 0.0006 µM; Kd (His6-PP1α_(7-330) H248N): 0.0066 ± 0.0017 µM
5 | B4 | 0.171 | 0.0206 ± 0.0051 | 
6 | B5 | 0.158 | 0.0188 ± 0.0009 | 
7 | B6 | 0.153 | 0.0212 ± 0.0006 | 
8 | B7 |  | 0.0156 ± 0.0024 | 
9 | B8 | 0.243 | 0.0217 ± 0.0031 | 
10 | B9 | 0.179 | 0.054 ± 0.009 | 
